Test results taken from patent US9907791B2, “Ron inhibitors for use in preventing and treating bone loss” (UNIVERSITY OF UTAH RESEARCH FOUNDATION, priority 2014, dated 2018).

Legend:
[1] = system: PyMT control tumor cells; test: Intratibial PyMT control tumor-induced osteolysis; type: in vivo, mice
Text: (§1) All procedures involving mice and experimental protocols were approved by the Institutional Animal Care and Use Committee (IACUC) of the University of Utah. The RonTK−/− mice which reside on the FVB background, were crossed with NOD.SCID mice for an immune-compromised mouse model. As a control, wild-type FVB mice were also crossed with NOD.SCID mice. The STK−/− mice, which are on a C57BL/6 background, were compared to wild-type C57BL/6 mice as controls. Mice for all experiments were 6 to 8 weeks of age. For intratibial injections, 1×10^5 (PyMTor DU4475) or 3×10^5 (MDA-MB-231) tumor cells were resuspended in 10 μL matrigel and injected into the right tibia of anesthetized female FVB (PyMT) or NOD.SCID mice carrying various alleles of RON. Osteolysis was assessed by X-ray radiography. Dissected hindlimbs from mice sacrificed at the final time point in each experiment were placed in the Kodak In-vivo Multispectral Imaging System FX and exposed to X-ray radiography at 35 kV for 100 sec. Excess tumor tissue was removed from the bones prior to X-ray. Osteolytic lesions were quantified using Image J software (NCBI). All images were compared to the contralateral leg as an internal control.
(§2) For in vivo experiments, the OSI-296 inhibitor was dissolved in 40% Trappsol with 0.01 M HCl, and mice were treated at a concentration of 200 mg/kg daily by oral gavage. […]

[2] = system: MDA-MB-231 control tumor cells; test: Intratibial MDA-MB-231 control tumor-induced osteolysis; type: in vivo, NOD.SCID mice; details: treated 3 days post tumor cell injection, sacrificed 30 days
Text: as §1, §2

[3] = system: MSP-overexpressing MDA-MB-231 cells; test: Intratibial MSP-overexpressing MDA-MB-231 tumor-induced osteolysis; type: in vivo, NOD.SCID mice; details: treated 3 days post tumor cell injection, sacrificed 30 days
Text: as §1, §2

[4] = system: c-Src; test: Western blot of osteoclast lysates, phospho-Src; type: cell-based, mice
Procedure: Cells were serum starved (0.5% FBS) for 3 hours prior to lysate collection. Inhibitors were added 1 hour prior to lysis and MSP was added 15 min prior to lysis when indicated. Cells were washed with 1×PBS and harvested in lysis buffer (25 mM Tris-HCl, pH 7.5, 0.42 M NaCl, 1.5 mM MgCl2, 0.5 mM EDTA, 1 mM DTT, 25% sucrose, and 0.1% Triton X-100) plus 100× protease arrest (Bioscience, Bozeman, Mont.) and 100× orthovanadate. Primary antibodies used for immunoblotting include: anti-MSP (Santa Cruz, sc-6090, Dallas, Tex.) at a 1:250 dilution, anti-pan Akt (Cell Signaling, #4691S, Beverly, Mass.) at a 1:1000 dilution, anti-pan Erk (Cell Signaling, #4695, Beverly, Mass.) at a 1:1000 dilution, anti-phospho Akt (Cell Signaling, #9271 L, Beverly, Mass.) at a 1:500 dilution, anti-phospho Erk (Cell Signaling, #4370S, Beverly, Mass.) at a 1:500 dilution, anti-Src (Cell Signaling, #2110, Beverly, Mass.) at a 1:500 dilution, and anti-phospho Src (Y416) (Cell Signaling, #2113, Beverly, Mass.) at a 1:500 dilution. The secondary antibodies used were HRP-conjugated anti-goat IgG (Santa Cruz, Dallas, Tex.) and anti-rabbit IgG (Santa Cruz, Dallas, Tex.). Chemiluminescent signals were detected using Immun-Star HRP (BioRad, Hercules, Calif.).

B1: muRANK-Fc: murine RANKL antagonist (Amgen) (protein)
chain: VTPPCTQERHYEHLGRCCSRCEPGKYLSSKCTPTSDSVCLPCGPDEYLDTWNEEDKCLLHKVCDAGKALVAVDPGNHTAPRRCACTAGYHWNSDCECCRRNTECAPGFGAQHPLQLNKDTVCTPCLLGFFSDVFSSTDKCKPWTNCTLLGKLEAHQGTTESDVVCSSSMTLRRPPKEAQAYLPS
modifications: left off: a dimerising Fc or GST
- osteolysis from PyMT control tumors (no MSP) ([1]; WT mice, treatment began 3 days post injection, sacrificed 42 days post injection): significantly impaired
- tumor growth of PyMT control bone lesions ([1]; caliper measurements): no significant effect on tumor growth
- osteolysis from control MDA-MB-231 tumor cells [2]: reduced osteolysis
- osteolysis from MSP-expressing MDA-MB-231 tumor cells [3]: did not significantly reduce
- phosphorylated c-Src in WT osteoclasts [4]: decrease in phosphorylated c-Src
